Test [1] concerns the target MPR 300 affinity matrix (Man6P-receptor affinity matrix). Nature of the test: overnight incubation with MPR 300 affinity matrix; activity in unbound, glucose 6-phosphate and mannose 6-phosphate eluted fractions.
The target is the same in test [2]. The test is described as follows: MPR 300 affinity column.
Test [3] shares this target. Nature of the test: MPR 300 affinity matrix binding of enzyme batches.

Where “and” joins values, the source holds several entries; their conditions need not be identical. Equal values may be shown once.

The substance “bovine LAMAN purified from kidney (from UniProt Q29451 51-999) (enzyme)” displayed a percent of LAMAN activity bound to the Man6P-receptor affinity matrix in a Man6P-dependent manner in test [1] of 6.4%.
Turning to “recombinant human lysosomal alpha-mannosidase (LAMAN) expressed in CHO cells (enzyme)”, in test [2], the percent bound to the MRP 300 column was under 40%. Besides, in test [3], the % phosphorylation (fraction of enzyme binding the Man6P-receptor affinity matrix) is 40% and 30% and 42%; the percent of the amount of enzyme binding to the affinity matrix turned out to be 40%. The substance also gave a percent of LAMAN bound to the Man6P-receptor affinity matrix in a Man6P-dependent manner in test [1] of 4.2%.
In test [1], “recombinant mouse LAMAN with C-terminal polyhistidine tail, secreted from mannose 6-phosphate receptor deficient mouse embryonic fibroblasts (from UniProt O09159 50-1013) (enzyme)” gave a percent of LAMAN activity bound to the Man6P-receptor affinity matrix of 73.6%.

Values taken from patent EP1740204B1.
